# Assay: yeast display, Sf9 membrane polyspecificity reagent, FACS + sequencing; frameworks hold sequencing errors
# Outline: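 A synthetic nanobody library was expressed on Saccharomyces cerevisiae BJ5465 by galactose induction for 36–48 hours. The library was stained for 1 hour at 4 °C with 10% biotinylated, detergent-solubilized Sf9 membrane reagent and enriched with streptavidin microbeads before FACS. Low and high (top ~1%) gates were set on anti-HA fluorescence for expression and streptavidin fluorescence for reagent binding, and each polyreactivity label reflects the gate of origin.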
row,Sequence,polyreactivity (PSR sort gate)
1,QVQLVESGGGLVQAGGSLRLSCAASGIIFPDYVMGWYRQAPGKERELVATITNDSSTTYADSVKGRFTISRDNAKNTVYLQMNSLKPEDTAVYYCAAPVDYQGDYWGQGTQVTVSS,low polyreactivity
2,QVQLVESGGGLVQAGGSLRLSCAASGIIFPEYDMGWYRQAPGKERELVAAITKSDGRTYYADSVKGRFTISRDNAKNTVYLQMNSLKPEDTAVYYCNADPRVVAYLGFDSWGQGTQVTVSS,low polyreactivity
3,QVQLVESGGGLVQAGGSLRLSCAASGIIFPFYVMGWYRQAPGKERELVAAITWSGDGTYYADSVKGRFTISRDNAKNTVYLQMNSLKPEDTAVYYCAAQWYYGGVKYYYWGQGTQVTVSS,low polyreactivity
4,QVQLVESGGGLVQAGGSLRLSCAASGIIFPLYAMGWYRQAPGKERELVADITRGGSTYYADSVKGRFTISRDNAKNTVYLQMNSLKPEDTAVYYGNKQKRWTYSHYFPTTYDYWGQGTQVTVSS,high polyreactivity
5,QVQLVESGGGLVQAGGSLRLSCAASGIIFPNYAMGWYRQAPGKERELFAAITWRGGGTYYADSVKGRFTISRDNAKNTVYLQMNSLKPEDTAVYYCAAQKAYPRRYYGYKWEYYYWGQGSQVTVSS,high polyreactivity
6,QVQLVESGGGLVQAGGSLRLSCAASGIIFPNYAMGWYRQAPGKERELVAAITTSGTSTYYADSVKGRFTISRDNAKNTVYLQMNSLKPEDTAVYYCAARPTGHWGGRYYYWGQGTQVTVSS,high polyreactivity
7,QVQLVESGGGLVQAGGSLRLSCAASGIIFPRYAMGWYRQAPGKERELVAAITIGGRTNYADSVKGRFTISRDNAKNTVYLQMNSLKPEDTAVYYCAAQTYVPYYEYDYWGQGTQVTVSS,low polyreactivity
8,QVQLVESGGGLVQAGGSLRLSCAASGIIFPYNAMGWYTQAPGKERELVAAITGGGSTYYADSVKGRFTISRDNAKNTVYLQMNSLKPEDTAVYYCAADRSGPGYDYWGQGTQVTVSS,low polyreactivity
9,QVQLVESGGGLVQAGGSLRLSCAASGIIFPYNVMGWYRQAPGKERELVAAITRGAASTYYADSVKGRFTISRDNAKNTVYLQMNSLKPEDTAVYYCATDPVSTRGSDYWGQGTQVTVSS,high polyreactivity
10,QVQLVESGGGLVQAGGSLRLSCAASGIIFQGYVMGWYRQAPGKERELVAVISRTGGSTYYADSVKGRFTISRDNAKNTVYLQMNSLKPEDTAVYYSSAGTPRLRYLQGHRMNYWGKGTQVTVSS,high polyreactivity
11,QVQLVESGGGLVQAGGSLRLSCAASGIIFQRNDMGWYRQAPGKERELVANIRDGGITYADSVKGRFTISRDNAKNTVYLQMNSLKPEDTAVYYCARDDTSPGFGDQSSNAAYYYWGQGTQVTVSS,low polyreactivity
12,QVQLVESGGGLVQAGGSLRLSCAASGIIFRAYAMGWYRQAPGKERELVAAITSRGGSTYYADSVKGRFTISRDNAKNTVYLQMNSLKPEDTAVYYCAADFTIPYWDAKFDYWGQGTQVTVSS,low polyreactivity
13,QVQLVESGGGLVQAGGSLRLSCAASGIIFRFYAMGWSRQAPGKERELVATISKRGGTTYYADSVKGRFTISRDYAMNTVDLQMNSLKPEDSAVYYCAVRLYLEMDYWGQGTQVTVSS,high polyreactivity
14,QVQLVESGGGLVQAGGSLRLSCAASGIIFRFYAMGWYRQAPGKERELVAVITSRSDSTYYADSVKGRFTISRDNAKNTVYLQMNSLKPEDTAVYYCNARYPWYYRYSTYDYWGQGTQVTVSS,high polyreactivity
15,QVQLVESGGGLVQAGGSLRLSCAASGIIFRFYARGWYRQAPGKERELVAAISSSGTRTYYADSVKGRFTISRDNAKNTVYLQMNSLKPEETAVYYCNAAYHYYDYDYWGQGTQVTVSS,high polyreactivity
16,QVQLVESGGGLVQAGGSLRLSCAASGIIFRGYAMGWYRQAPGKERELVAGITSGGRTYYADSVKGRFTISRDNAKNTVYLQMNSLKPEDTAVYYCNADAYGDDWKIYDYWGQGTQVTVSS,low polyreactivity
17,QVQLVESGGGLVQAGGSLRLSCAASGIIFRGYDMGWYRQAPGKERELVAVITDDGSTYYADSVKGRFTISRDNAKNTVYLQMNSLKPEDTAVYYCNADYLLGHWIWYDYWGQGTQVTVSS,low polyreactivity
18,QVQLVESGGGLVQAGGSLRLSCAASGIIFRGYVMGWYRQAPGKERELVAAISTSGGRTSYADSVKGRFTISRDYAKNTVYLQMNSLKPEDTAVYYCAARPLYSYSQWGYGYWGQVTQVTVSS,high polyreactivity
19,QVQLVESGGGLVQAGGSLRLSCAASGIIFRKYAMGWYRQAPGKERELVAAISFSGGTTYYADSVKGRFTISRDNAKNTVYLQMNSLKPEDTAVYYCAADPVAYVIDDYYWGQGTQVTVSS,high polyreactivity
20,QVQLVESGGGLVQAGGSLRLSCAASGIIFRNYAMGWYRQAPGKERELVAAISRNGGSTYYADSVKGRFTISRDNAKNTVYLQMNSLKPEDTAVYYCAARASYPNWTYYYWGKGTQVTVSS,high polyreactivity
21,QVQLVESGGGLVQAGGSLRLSCAASGIIFRPYAMGWYRQAPGTEMELVAAITGSGVSTYYADSVKGRFTISRDNAKNTVYLQMNSLKPEDTAVYYCAKRYNRGYHRYDYWGQGTQVTVSS,low polyreactivity
22,QVQLVESGGGLVQAGGSLRLSCAASGIIFRRNAMGWYRQAPGKERELVATISRSGGSTYYADSVKGRFTISRYNAKNTVYLQMNSLKPEDTAVYYCNTLYPRPYAINPRDYWGQGTQVTVSS,high polyreactivity
23,QVQLVESGGGLVQAGGSLRLSCAASGIIFRRYAMGWYRQAPGKERELVAAIRTSGGNTYYADSVKRRFTISRDNAKNTVYLQMNSLKPEDTAVYYCAARKYHYRYGYWGQGTQVTVSS,high polyreactivity
24,QVQLVESGGGLVQAGGSLRLSCAASGIIFRRYAMGWYRQAPGKERELVAAISSGGRTYYADSVKGRFTISRDNAKNTVYLQMNSLKPEDTAVYYCNARAFARYWWYEYWGQGTQVTVSS,high polyreactivity
25,QVQLVESGGGLVQAGGSLRLSCAASGIIFRRYAMGWYRQEPGKARELVAAITSGGDTNYADSVKGRFTLSRDNAKNTVYLQMNSLKPEDTAVYYCNAGLRGVRRYGFDYWGQGTQVTVSS,high polyreactivity
26,QVQLVESGGGLVQAGGSLRLSCAASGIIFRSNAMGWYRQAAGNERELVAAISQRGGSTYYADSVKGRFTISRDNAKNTVYLQMNSLKPEDTAVYYCNALQRRYGGGGNDYWGQGTQVTVSS,high polyreactivity
27,QVQLVESGGGLVQAGGSLRLSCAASGIIFRSNAMGWYRQAPGKERELVAAISRTGRTYYADSVKGRFTISRDNAKNTVNLQMNSLKPEDTAVYYCAVGIVQRDSRYYYWGQGTQVTVSS,high polyreactivity
28,QVQLVESGGGLVQAGGSLRLSCAASGIIFRSNAMGWYRQAPGKERELVAAISWSGSSTYYADSVKGRFTISRDNAKKTVYLQMNSLKPEDTAVYYCAAYDFYGIYWGQGTQVTVSS,low polyreactivity
29,QVQLVESGGGLVQAGGSLRLSCAASGIIFRTYAMGWYRQAPGKEREFVAAISWSGGRTYYADSVKGRFTISRDNAKNTVYLQMNSLKPEDTAVYYCAALRSSQSKGDYWGQGTQVTVSS,high polyreactivity
30,QVQLVESGGGLVQAGGSLRLSCAASGIIFRVNAMGWYRQAPGKERELVAAISSGGRTYYADSVKGRFTISGDNAKNTVSLQMNSLKPEDTAVYYCNAGRLRYIFKSYDYWGQGTQVSVSS,high polyreactivity

# — the nanobody polyreactivity screen of Harvey et al. (2022)
